According to the nanobody polyreactivity screen of Harvey et al. (2022):

Assay: yeast display, Sf9 membrane polyspecificity reagent, FACS + sequencing; frameworks hold sequencing errors
In short: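 Nanobodies came from a synthetic yeast display library in Saccharomyces cerevisiae BJ5465, induced with galactose for 36–48 hours and stained for 1 hour at 4 °C with 10% biotinylated, detergent-solubilized Sf9 membrane reagent. Cells were enriched on streptavidin microbeads and then FACS-sorted, with low and high (top ~1%) gates set on anti-HA fluorescence for expression and streptavidin fluorescence for reagent binding. Each polyreactivity label reflects the gate a clone came from. Genes were amplified by colony PCR, sequenced by MiSeq 2 × 250 and filtered by CDR length.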

Row | Sequence | polyreactivity (PSR sort gate)
1 | QVQLVESGGGLVQAGGSLRISCAASGFIFTSKAMGWHRQAPGKERELVAAITKSGGSTYYADSVKGRFTISRDNAKNTVYLQMNSLKPEDTAVYYCAAYPTSRYKYEYWGQGTQVTVSS | high polyreactivity
2 | QVQLVESGGGLVQAGGSLRLSCAASGSIFPHYAMGWYRQSPGKETELVAAISRSGTSTYYADSVKGRFTISRDNAKNTVYLQMNSLKPEDTAVYYCAALSNNGVRYYYWGQGTQVTVSS | high polyreactivity
3 | QVQLVESGGGLVQAGGSLRLSCAASGSTFAKNAMGWYRQAPGKERELVAAISSGGSTYYADSVKGRFTISRDNAKNTVYLQMNSLKPEDTAVYYCAASWKQGYRTYGYWGQGTQVTVSS | high polyreactivity
4 | QVQLVESGGGLVQAGGSRRLSCAGSGRIFHYYAMGWYRPAPGTERELVAAISRTGSTYYADSVKGRFTISRDNAINTVYLQMNSLKPEDTAVYYCAADYWPQSNRWVYFRYGYWGQGTQVTVSS | high polyreactivity
5 | QVQLVESGGGLVQAGGSLRLSCAASGLTFYGYVMGWYRQAPGKEWELVASISRSGGRTYYADSVKGRFTISRDNAKNTVFLQMNSLKPEDTAVYYCAKYLSRQSGDGEYDYWGQGTQVTVSS | low polyreactivity
6 | QVQLVESGVGLVQAGGSLRLSCAASGYTFAYNAMGWYRPAPGKERELVAAITSRAGSTHYADSVKGRFTISRDNAKNTVYLQMNSLKPEDTAVYYCAAKRYNRLRSYRYSDREDYWGQGTQVTVSS | high polyreactivity
7 | QVQLVKSGGGLVQAGGSLRLSCAASGIIFTDYGMGWYRQAPGKERELVAVISRGGTTKYADSVKGRFTISRDNAKNTVYLQMNSLQPEDTAVYYCAARTWAGRWYGLDFWGQGTQVTVSS | high polyreactivity
8 | QVQLVESGGGLVQAGGSLRLSCAASGFTFYRYAMGWYRQAPGKERELVAAISRSGGSTSYADSVKGRFTISRDNAKNTLYLQMNSLTPEDTEVYYCATRNWYSLKDYYYWGQGTQVTVSS | high polyreactivity
9 | QVQLVESGGGLVQAGGSLRLSCAASGITFYKYDMGCYRQATGKERELVAAISFRGGNTNYADSVKGRFTISRDNAKNTVYLQMTSLKPEDTAVYYCAAYSYTWFYEYGYWGLGTQVTVSS | high polyreactivity
10 | QVQLVESGGGLVQAGGSLRLSCAASGNTYDPNAMGWYRQAPGKERELVAAISSDGSTKYADSVKGRFTISRDNAKNTVYLQMNSLKPEDTAVYYCAADHGYWYWYGGDNSWGQGTQVTVSS | low polyreactivity
11 | QVQLVESGGGLVQAGGSLRLSCAASGSIFFSYAMGWYRQAPGKERELVAAISTSGGNTYYADSVKGRFTISRDNAKNTVYVQMNSLKPEDTAVYYCNARGSYPPYRSYGYWGQCTQVTVSS | low polyreactivity
12 | QVHLVESGGGLDQAGGSLRLICAASGSIFDYYAMGWYRQAPGKERELVAAIDNPDSTNYADSVKGRFTLSRDNAKNTVYLQMNSLKPEDTAVYYCAASSRTVWYPGVGYYYWGQGTQVTVSS | low polyreactivity
13 | QVQLVESGGGLVQAGGSLRLSCAASGSIFCSYAMGWYRQAPGKERELVAAITWSGGNTYADSVKGRFTISRDNAKNTDYLQMNSLKPEDTAVYYCAADPAHGTKWYVYPSHDDYWGQGTQGTVSS | low polyreactivity
14 | QVQLVESGGGLVQAGGSLRLICAASGRTFPGYAMGWYRPAPGKDRELVAAISNSGGRTYYADSVKGRFTISRDNAKKTVYLQMTSLKREDTAVYYCNATTDNGSNKRYYYWGQGTQVTVSS | high polyreactivity
15 | QVQLVESGGGLVQAGGSLRLSCAASGFTFYHNAMGWYRHAPGKERELVATITARGGRTYYADSVKGRFTISRDNAKNTVYLQMISLKPEDTAVYYCNVKASRGYTYEYDYWGQGTQVTVSS | high polyreactivity
16 | QVQLVESGGGLVQAGGSLRLSCAASGSTFPYNAMGWYRQAPGKERELVATIDRGSTTNYADSVKGRFTISRDNAKNTVYLQMNSLKPEDTAVYYCNAKFIWWYEKGGWNVSKYEYWGQGTQVTVSS | low polyreactivity
17 | QVQLVESGGGLVQAGGSLRLSCAASGITFASYAMGWYRQAPGKERELVAGISGSGGRTYYADSVKGRFTISRDNAKNTVYLQMNSLKPEDTAVYYCAARQWDIRASPPRYYRYDYWGQGTQVTVSS | high polyreactivity
18 | QVQLVETGGGLVQAGGSLRLSCAASGSTFYRYAMGWYRQAPGKERELVAAITRSGGGTHYADSVKGRFTISRDNAKNTVYLQMNSLKPEDTAVYYCAKRQSGYRYDYWGQGTQVTVSS | low polyreactivity
19 | QVQLVESGGGLVQAGGSLLLSCAASGSIFVRNTMGWYRQAPGKERELVAAITSSGGTTYYADSVKGRFTISRDNAKNTVYLQMNSLKPEDTAVYYCAARYGYWGQGTQVTVSS | high polyreactivity
20 | QVQLVESGGGLVQAGGSLRLSCAASGSIFFDGNAMGWYRQAPGKERELVAAISVSGGSTYYADSVKGRFTISRDNAKNTVYLQMNSLKPEDTAVYYCAKYPSKSFVPGDYWGQGTQVTVSS | low polyreactivity
21 | QVQLVESGGGLVQAGGSLRLSCAASGRTFKFYAMGWYRQAPGKERELVARITSNSGSTYYADSVKGRFTISRDNAKHTVYLQLNSLKPEETAVYYCNARYGYTYRTFRYDYWGQGSQVTVSS | high polyreactivity
22 | QVRLVESGGGLVQAGGSLRLSCAASGRTLFVYDMGWYRQAPGKERELVAAISTGDDTNYADSVKGRFTISRDNAKNTVYLQMNSLKPEDTAVYYCNALYYTYPYWGYPSDYNLDYWGQGTQVTVSS | low polyreactivity
23 | QVQLVESGGGLVQAGGSLRLSSASSGSTFSLNAMGWYRQAPGTERELVAAISSSTGRTSYADSVKGRFTISRDNAKNTVYLQMTSLNPEDTAVYYCAADVYESLYFPYDSWRQGTQVTVSS | low polyreactivity
24 | QVQLVESGGGLVQAGGSLRLSCAASGSTFRSYTMGWYRQAPGKERELVATIDWSAGNTRYADSVKGRFTISRDNAKNTVYLQMNSLKPEDTAVYYCNKDAGLWVSGTLYYWGQGTQVTVSS | low polyreactivity
25 | QVQLVESGGGLVQAGGSLRLSCAASGRTSVRYAMGWYRQAPGKERELVAAISWSGGSTYYADSVKGRFTISRDNAKNTDYLQMNSLKAEDTAVYYCNAQHARGYYYWGQGTQVTVSS | low polyreactivity
26 | QVQLVESGGGLVQAGGSLRLSCAASGITFNLYAMGWYRQAPGKEREFVAVITASGSSTYYADSVKGRFTISRDNAKNTVYLQMNSLKPEDTAVYYCAARWHIYYFSYVTSYAYGYWGQGTQVTVSS | high polyreactivity
27 | QVQLVESGGGLVQAGGSLRLICAASGSIFQFYAMGWYRQAPGKERELVAVITTSGVSTYYADSVKGRFTISRDNAKNTDYLQMNSLKPEDTAVYYCAADDYYLAGDYWGQGTQVTVSS | low polyreactivity
28 | QVQLVESGGGLVQAGGSHRLSCAASGFTFRRNAMGWYRQAPGKERELVAAISWSGGSTYYADSVKGRFTISRDNAKNTVYLQMNSLKPEDTAVYYCAAYDYRHLEDKYDYWGQGTQVTVSS | high polyreactivity
29 | QVQLVESGGGLVQAGGTLRLSCAASGRTLHGYAMGWYRQAPGKERELVASITWSGASTYYADSVKGRFTISRDNAKNTVYLQMNSLKPEDTAVYYCAADRSRYVRRRYGYWGQGTQVTVSS | high polyreactivity
30 | QVQLVESGGGLVQAGGSLRLTCAASGRTFTTYAMGWYRQAPGKERELFAAISGSGGSTYYADSVKGRFTISRDNAKNTVYLQMNSLKPEGTAVYYCATAYYYHGGYYYPYDDYWGQGTQVTVSS | low polyreactivity
